From US20240209076A1 (KODIAK SCIENCES, published 2024)

Each binder was assayed against T1, human IL-6 (human, UniProt P05231 30-212) (assay: SPR Biacore, supernatant Ab on Protein A chip, 37 C).
T1 construct: IL-6 flowed over captured antibodies
Procedure: (§1) Antibodies were captured on a Protein A chip (GE) by injecting 1:20 cell supernatant dilutions at 10 μL/min for 60 seconds. […] The sensor chip was regenerated by a 60 seconds injection of 10 mM Glycine pH 1.7 at the flow rate of 50 μL/min. […] For this setup, 1 μg/mL of purified antibody was injected over a Protein A chip at 10 μL/min for 25 seconds. […] The sensor chip was regenerated by a 60 seconds injection of 10 mM Glycine pH 1.7 at flow rate of 50 μL/min. Data analysis for supernatant and purified samples were performed using BIAevaluation software (GE). All sensorgrams were double reference subtracted and fit using a 1:1 Langmuir binding model.
T1 sequence (P05231 30-212 limits assumed): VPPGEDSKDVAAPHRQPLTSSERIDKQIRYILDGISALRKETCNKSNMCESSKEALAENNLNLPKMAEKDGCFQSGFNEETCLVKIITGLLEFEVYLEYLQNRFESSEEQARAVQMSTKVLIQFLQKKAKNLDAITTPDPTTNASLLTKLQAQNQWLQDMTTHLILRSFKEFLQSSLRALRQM

Kd | koff | kon | Binder
0.559 nM | 0.000899 s⁻¹ | 1.61e+06 M⁻¹ s⁻¹ | anti-IL-6 antibody, heavy chain I51A, G66D / light chain M32L, M50D, N52S, M88Q (antibody, IgG1, V domains shown, Full IgG1 (Expi293); VL = variant III) VH: EVQLVESGGGLVQPGGSLRLSCAASGFTFSPFAMSWVRQAPGKGLEWVAKASPGGSWTYYSDTVTDRFTFSLDTSKSTAYLQMNSLRAEDTAVYYCARQLWGYYALDIWGQGTLVTVSS VL: DIQLTQSPSSLSASVGDRVTITCSASISVSYLYWYQQKPGKAPKLLIYDDSSLASGVPSRFSGSGSGTDFTLTISSLQPEDFATYYCQQWSGYPYTFGQGTKVEIK
2.14 nM | 0.00196 s⁻¹ | 914000 M⁻¹ s⁻¹ | anti-IL-6 antibody, heavy chain I51E, G66D / light chain M32L, M50D, N52S, M88Q (antibody, IgG1, V domains shown, Full IgG1 (Expi293); VL = variant III) VH: EVQLVESGGGLVQPGGSLRLSCAASGFTFSPFAMSWVRQAPGKGLEWVAKESPGGSWTYYSDTVTDRFTFSLDTSKSTAYLQMNSLRAEDTAVYYCARQLWGYYALDIWGQGTLVTVSS VL: DIQLTQSPSSLSASVGDRVTITCSASISVSYLYWYQQKPGKAPKLLIYDDSSLASGVPSRFSGSGSGTDFTLTISSLQPEDFATYYCQQWSGYPYTFGQGTKVEIK
0.652 nM | 0.000912 s⁻¹ | 1.4e+06 M⁻¹ s⁻¹ | anti-IL-6 antibody, heavy chain I51G, G66D / light chain M32L, M50D, N52S, M88Q (antibody, IgG1, V domains shown, Full IgG1 (Expi293); VL = variant III) VH: EVQLVESGGGLVQPGGSLRLSCAASGFTFSPFAMSWVRQAPGKGLEWVAKGSPGGSWTYYSDTVTDRFTFSLDTSKSTAYLQMNSLRAEDTAVYYCARQLWGYYALDIWGQGTLVTVSS VL: DIQLTQSPSSLSASVGDRVTITCSASISVSYLYWYQQKPGKAPKLLIYDDSSLASGVPSRFSGSGSGTDFTLTISSLQPEDFATYYCQQWSGYPYTFGQGTKVEIK
9.58 nM | 0.00799 s⁻¹ | 834000 M⁻¹ s⁻¹ | anti-IL-6 antibody, heavy chain I51D, G66D / light chain M32L, M50D, N52S, M88Q (antibody, IgG1, V domains shown, Full IgG1 (Expi293); VL = variant III) VH: EVQLVESGGGLVQPGGSLRLSCAASGFTFSPFAMSWVRQAPGKGLEWVAKDSPGGSWTYYSDTVTDRFTFSLDTSKSTAYLQMNSLRAEDTAVYYCARQLWGYYALDIWGQGTLVTVSS VL: DIQLTQSPSSLSASVGDRVTITCSASISVSYLYWYQQKPGKAPKLLIYDDSSLASGVPSRFSGSGSGTDFTLTISSLQPEDFATYYCQQWSGYPYTFGQGTKVEIK
4.45 nM | 0.00611 s⁻¹ | 1.37e+06 M⁻¹ s⁻¹ | anti-IL-6 antibody, heavy chain I51F, G66D / light chain M32L, M50D, N52S, M88Q (antibody, IgG1, V domains shown, Full IgG1 (Expi293); VL = variant III) VH: EVQLVESGGGLVQPGGSLRLSCAASGFTFSPFAMSWVRQAPGKGLEWVAKFSPGGSWTYYSDTVTDRFTFSLDTSKSTAYLQMNSLRAEDTAVYYCARQLWGYYALDIWGQGTLVTVSS VL: DIQLTQSPSSLSASVGDRVTITCSASISVSYLYWYQQKPGKAPKLLIYDDSSLASGVPSRFSGSGSGTDFTLTISSLQPEDFATYYCQQWSGYPYTFGQGTKVEIK

These binders were tested against human IL-6 (human, UniProt P05231 30-212) (assay: SPR Biacore, supernatant, Protein A capture, 37 C).
Procedure: Those four positions were selected based on their tolerance for mutations as observed in bacterial and mammalian screens. […] These cultures were centrifuged and supernatants containing secreted antibodies were harvested and diluted in HBS-EP+ running buffer (1:20 ratio).
Target sequence in this assay (P05231 30-212 limits assumed): as the sequence (P05231 30-212 limits assumed) above
as §1

Kd | koff | kon | Binder
0.686 nM | 0.000631 s⁻¹ | 920000 M⁻¹ s⁻¹ | Anti-IL-6 antibody, heavy chain WT / light chain M32L, M50D, N52S, M88Q (antibody, IgG1, V domains shown, IgG1; variable domains only; VL is variant III) VH: EVQLVESGGGLVQPGGSLRLSCAASGFTFSPFAMSWVRQAPGKGLEWVAKISPGGSWTYYSDTVTGRFTFSLDTSKSTAYLQMNSLRAEDTAVYYCARQLWGYYALDIWGQGTLVTVSS VL: DIQLTQSPSSLSASVGDRVTITCSASISVSYLYWYQQKPGKAPKLLIYDDSSLASGVPSRFSGSGSGTDFTLTISSLQPEDFATYYCQQWSGYPYTFGQGTKVEIK
1.76 nM | 0.0014 s⁻¹ | 794000 M⁻¹ s⁻¹ | Anti-IL-6 antibody, heavy chain S35H, G66D, Q99V / light chain M32L, M50D, N52S, M88Q (antibody, IgG1, V domains shown, IgG1; variable domains only; VL is variant III) VH: EVQLVESGGGLVQPGGSLRLSCAASGFTFSPFAMHWVRQAPGKGLEWVAKISPGGSWTYYSDTVTDRFTFSLDTSKSTAYLQMNSLRAEDTAVYYCARVLWGYYALDIWGQGTLVTVSS VL: DIQLTQSPSSLSASVGDRVTITCSASISVSYLYWYQQKPGKAPKLLIYDDSSLASGVPSRFSGSGSGTDFTLTISSLQPEDFATYYCQQWSGYPYTFGQGTKVEIK
0.825 nM | 0.00215 s⁻¹ | 2.6e+06 M⁻¹ s⁻¹ | Anti-IL-6 antibody, heavy chain S35H, G66D, Q99Y / light chain WT (antibody, IgG1, V domains shown, IgG1; variable domains only) VH: EVQLVESGGGLVQPGGSLRLSCAASGFTFSPFAMHWVRQAPGKGLEWVAKISPGGSWTYYSDTVTDRFTFSLDTSKSTAYLQMNSLRAEDTAVYYCARYLWGYYALDIWGQGTLVTVSS VL: DIQLTQSPSSLSASVGDRVTITCSASISVSYMYWYQQKPGKAPKLLIYDMSNLASGVPSRFSGSGSGTDFTLTISSLQPEDFATYYCMQWSGYPYTFGQGTKVEIK
2.51 nM | 0.00547 s⁻¹ | 2.17e+06 M⁻¹ s⁻¹ | Anti-IL-6 antibody, heavy chain S35H, G66D, Q99Y / light chain M32L, M50D, N52S, M88Q (antibody, IgG1, V domains shown, IgG1; variable domains only; VL is variant III) VH: EVQLVESGGGLVQPGGSLRLSCAASGFTFSPFAMHWVRQAPGKGLEWVAKISPGGSWTYYSDTVTDRFTFSLDTSKSTAYLQMNSLRAEDTAVYYCARYLWGYYALDIWGQGTLVTVSS VL: DIQLTQSPSSLSASVGDRVTITCSASISVSYLYWYQQKPGKAPKLLIYDDSSLASGVPSRFSGSGSGTDFTLTISSLQPEDFATYYCQQWSGYPYTFGQGTKVEIK
4.8 nM | 0.00431 s⁻¹ | 898000 M⁻¹ s⁻¹ | Anti-IL-6 antibody, heavy chain S35H, G66D, Q99V / light chain WT (antibody, IgG1, V domains shown, IgG1; variable domains only) VH: EVQLVESGGGLVQPGGSLRLSCAASGFTFSPFAMHWVRQAPGKGLEWVAKISPGGSWTYYSDTVTDRFTFSLDTSKSTAYLQMNSLRAEDTAVYYCARVLWGYYALDIWGQGTLVTVSS VL: DIQLTQSPSSLSASVGDRVTITCSASISVSYMYWYQQKPGKAPKLLIYDMSNLASGVPSRFSGSGSGTDFTLTISSLQPEDFATYYCMQWSGYPYTFGQGTKVEIK
1.31 nM | 0.00222 s⁻¹ | 1.69e+06 M⁻¹ s⁻¹ | Anti-IL-6 antibody, heavy chain S35H, G66D, Q99T / light chain WT (antibody, IgG1, V domains shown, IgG1; variable domains only) VH: EVQLVESGGGLVQPGGSLRLSCAASGFTFSPFAMHWVRQAPGKGLEWVAKISPGGSWTYYSDTVTDRFTFSLDTSKSTAYLQMNSLRAEDTAVYYCARTLWGYYALDIWGQGTLVTVSS VL: DIQLTQSPSSLSASVGDRVTITCSASISVSYMYWYQQKPGKAPKLLIYDMSNLASGVPSRFSGSGSGTDFTLTISSLQPEDFATYYCMQWSGYPYTFGQGTKVEIK
7.66 nM | 0.00154 s⁻¹ | 201000 M⁻¹ s⁻¹ | Anti-IL-6 antibody, heavy chain S35H, G66D, Q99S / light chain M32L, M50D, N52S, M88Q (antibody, IgG1, V domains shown, IgG1; variable domains only; VL is variant III) VH: EVQLVESGGGLVQPGGSLRLSCAASGFTFSPFAMHWVRQAPGKGLEWVAKISPGGSWTYYSDTVTDRFTFSLDTSKSTAYLQMNSLRAEDTAVYYCARSLWGYYALDIWGQGTLVTVSS VL: DIQLTQSPSSLSASVGDRVTITCSASISVSYLYWYQQKPGKAPKLLIYDDSSLASGVPSRFSGSGSGTDFTLTISSLQPEDFATYYCQQWSGYPYTFGQGTKVEIK
6.48 nM | 0.0257 s⁻¹ | 3.96e+06 M⁻¹ s⁻¹ | Anti-IL-6 antibody, heavy chain S35H, G66D, Q99S / light chain WT (antibody, IgG1, V domains shown, IgG1; variable domains only) VH: EVQLVESGGGLVQPGGSLRLSCAASGFTFSPFAMHWVRQAPGKGLEWVAKISPGGSWTYYSDTVTDRFTFSLDTSKSTAYLQMNSLRAEDTAVYYCARSLWGYYALDIWGQGTLVTVSS VL: DIQLTQSPSSLSASVGDRVTITCSASISVSYMYWYQQKPGKAPKLLIYDMSNLASGVPSRFSGSGSGTDFTLTISSLQPEDFATYYCMQWSGYPYTFGQGTKVEIK
6.51 nM | 0.049 s⁻¹ | 7.52e+06 M⁻¹ s⁻¹ | Anti-IL-6 antibody, heavy chain S35H, G66D, Q99T / light chain M32L, M50D, N52S, M88Q (antibody, IgG1, V domains shown, IgG1; variable domains only; VL is variant III) VH: EVQLVESGGGLVQPGGSLRLSCAASGFTFSPFAMHWVRQAPGKGLEWVAKISPGGSWTYYSDTVTDRFTFSLDTSKSTAYLQMNSLRAEDTAVYYCARTLWGYYALDIWGQGTLVTVSS VL: DIQLTQSPSSLSASVGDRVTITCSASISVSYLYWYQQKPGKAPKLLIYDDSSLASGVPSRFSGSGSGTDFTLTISSLQPEDFATYYCQQWSGYPYTFGQGTKVEIK
